Data reported in publication PMC3711072, “The Activity of CCL18 is Principally Mediated through Interaction with Glycosaminoglycans” (Frontiers in Immunology, 2013).
Values joined by “and” are separate entries in the source; they are usually repeats but may differ in a detail not shown here. Equal values may be shown once.

B1: Evasin-1 (natural protein)
chain: EDDEDYGDLGGCPFLVAENKTGYPTIVACKQDCNGTTETAPNGTRCFSIGDEGLRRMTANLPYDCPLGQCSNGDCIPKETYEVCYRRNWRDKKN
modifications: glycosylated (sites not given)
notes: source: produced as previously described (18, 19)
B2: CCL11 (ligand)
chain: not shown
notes: chemokine CCL11; source: obtained from PeptroTech or produced as previously described (17)
B3: CC chemokine ligand 18 (CCL18) (ligand, human, UniProt P55774 21-89, looked up)
chain: AQVGTNKELCCLVYTSWQIPQKFIVDYSETSPQCPKPGVILLTKRGRQICADPNKKWVQKYISDLKLNA
B4: Evasin-4 (natural protein)
chain: EVPQMTSSSAPDLEEEDDYTAYAPLTCYFTNSTLGLLAPPNCSVLCNSTTTWFNETSPNNASCLLTVDFLTQDAILQENQPYNCSVGHCDNGTCAGPPRHAQCW
modifications: glycosylated (sites not given)
notes: as for B1

Columns and labels:
[1] = biological target: T1, Radiolabeled CCL18 (125I-CCL18) (human, UniProt P55774 21-89, 125I label (radiolabeled; residue not stated)); assay: radioligand binding; equilibrium competition: increasing concentration of Evasin against 125I-CCL18 binding to L1.2/CCR3 transfectants; Evasin binds the tracer; settings: both partners purified
T1 construct: CCL18, radioiodinated; also called tracer; source: bought: Anawa
T1 sequence (looked up): B3 chain

[2] = biological target: B3; assay: SEC; 500 ug CCL18 and an equimolar amount of Evasin incubated 45 min at RT in PBS, Superdex 75 in PBS, 1.5 ml/min, calibrated column; fractions on silver stained SDS-PAGE; CCL18 and Evasins also run alone; settings: both partners purified
[3] = biological target: T2, CCR3 (UniProt P51677 1-355); assay: radioligand binding; equilibrium competition binding of 125I-CCL18 on L1.2/CCR3 transfectants, increasing concentration of unlabelled competitor; settings: one partner purified
T2 construct: CC chemokine receptor CCR3 expressed on L1.2 transfectants; In the functional rows on internalisation the CCR3 is the endogenous receptor of human eosinophils; also called CCR3 on L1.2/CCR3 transfectants; source: L1.2/CCR3 transfectants, on cells
T2 sequence (looked up): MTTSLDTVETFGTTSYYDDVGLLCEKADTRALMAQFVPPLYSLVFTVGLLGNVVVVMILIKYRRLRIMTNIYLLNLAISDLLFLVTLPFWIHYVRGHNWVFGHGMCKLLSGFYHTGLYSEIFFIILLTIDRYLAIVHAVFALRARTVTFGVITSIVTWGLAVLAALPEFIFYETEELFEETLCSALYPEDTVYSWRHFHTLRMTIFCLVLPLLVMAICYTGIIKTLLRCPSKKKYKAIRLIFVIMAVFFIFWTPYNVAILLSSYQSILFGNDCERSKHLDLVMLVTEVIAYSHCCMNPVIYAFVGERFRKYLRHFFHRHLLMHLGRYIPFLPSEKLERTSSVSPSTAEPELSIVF

[4] = biological target: T2, CCR3; assay: cell-based or functional assay

B1
IC50 [1]: 9.92 nM and 7.94 nM
stoichiometry N [2]: 1

B2
IC50 [3]: 4.99 nM

B3
inhibition of CCL11-induced chemotaxis of L1.2/CCR3 transfectants by CCL18 previously incubated with a twofold molar excess of Evasin-3 (no effect of Evasin-3), IC50, n = 3 [4]: 446 nM
inhibition of CCL11-induced chemotaxis of L1.2/CCR3 transfectants by CCL18 with Evasin-3 as a control, IC50 of the experiment shown [4]: 421 nM
inhibition of migration of L1.2/CCR3 transfectants to 1 nM CCL11 (blocks CCL11-CCR3), IC50 of the experiment shown [4]: 557 nM
inhibition of the chemotactic response of L1.2/CCR3 transfectants induced by 1 nM CCL11 (blocks CCL11-CCR3), IC50, mean of n = 7 [4]: 318 nM

B4
IC50 [1]: 0.015 nM and 0.03 nM
stoichiometry N [2]: 1
